From patent publication US20200141935A1, “SYSTEM, METHOD, APPARATUS AND DIAGNOSTIC TEST FOR PREGNANCY” (BARCELONA INSTITUTE FOR GLOBAL HEALTH, priority 2017, published 2020)

Key:
P. falciparum = test: Prevalence of infection by qPCR at delivery by intermittent preventive treatment group; type: in vivo, pregnant women; conditions: for PCR prevalence of infection (%): by IPTp group
Description: All women included in the study received bed nets treated with long-lasting insecticide. At delivery, HIV serostatus was assessed using a rapid diagnostic test and hemoglobin was determined in capillary blood sample using mobile devices (HemoCue, Hemocontrol and Sysmex KX analyzer). Tissue samples from the maternal side of the placenta, as well as maternal peripheral-, placental-blood samples were collected at delivery. Dried blood spots onto filter paper were prepared (50 ul) and blood was collected into EDTA vacutainers and centrifuged, with the plasma stored at −20° C. […] Clinical malaria episodes were treated according to national guidelines at the time of the study. Biases due to pooling of data from these two clinical trials were minimized by the use of similar protocols and procedures during the two trials. […] P. falciparum infection at delivery was defined if peripheral or placental blood samples were positive by microscopy or qPCR or if histology positive (active or chronic). Infection during pregnancy was defined if peripheral or placental blood samples were positive by microscopy or qPCR at any time-point of collection, if P. falciparum detected by hospital passive case detection (PCD), or if histology positive (active, chronic or past) on the sub-set of women from longitudinal cohort. Seroprevalences between countries (Benin, Gabon and Mozambique for HIV-uninfected and Kenya and Mozambique for HIV-infected), between IPTp intervention group (MQ vs SP for HIV-uninfected and MQ vs Placebo for HIV infected) and anemia status were compared by logistic regression models adjusted by parity, age and treatment.

IgG [1] = test: Multiplex bead-based immunoassay (Luminex): IgG levels (nMFI) against antigens, compared between groups; type: binding, pregnant women
Text: (§1) Two multiplex suspension array panels were constructed to quantify IgG responses against P. falciparum recombinant proteins and synthetic peptides, using the xMAP™ technology and the Luminex® 100/200™ System (Luminex® Corp., Austin, Tex.). MagPlex® microspheres (magnetic carboxylated polystyrene microparticles, 5.6 μm) with different spectral signatures were selected for each protein (DBL3X, DBL5ϵ, DBL6ϵ, AMA1 and MSP119), peptides (25 VAR2CSA peptides and pCSP), tetanus toxin and bovine serum albumin (BSA). Antigens were covalently coupled to beads following a modification of the Luminex® Corporation protocol. Protein and peptide multiplex arrays were prepared by pooling together equal volumes of coated beads. Plasma samples or the product of DBS elution were analyzed in duplicate at dilution 1:400 for the protein array and 1:100 for the peptide array. A hyperimmune plasma pool composed by 23 plasmas from malaria infected Mozambican pregnant women (HIP-VAR2CSA) was included in each assay plate, in addition to blanks (wells without sample) to assess background levels. A minimum of 50 microspheres were read per spectral signature and results were exported as crude median fluorescent intensity ([…]). Duplicates were averaged and background MFIs were subtracted. A total of 224 plates were analyzed and the intra-assay variation (mean CV of replicates from 20 plasma samples per plate) ranged from 1.4% to 7.3% for the protein array and from 2.5% to 12.4% for the peptide array. The inter-assay variation (variability of positive pool [HIP-VAR2CSA] between 224 plates) was 5% for the protein array and 26% for the peptide array. Results were normalized (nMFI) to account for plate-to-plate variation by […] the background subtracted MFI of each sample with the value of the positive pool in the same plate and dividing by the median of positive pools in all plates.
(§2) Antibodies were eluted from DBS from Gabon, […] and Kenya, as previously described. Briefly, to achieve a concentration of eluted blood proteins equivalent to a 1:50 plasma dilution antibodies were eluted from four spots of approximately 3 mm in diameter with 200 μl Luminex® assay buffer (1% BSA, 0.05% sodium azide in filtrated PBS [Phosphate-buffered saline]). […]. Controls blood drops were artificially prepared using fresh erythrocytes (blood type 0, assuming a hematocrit approximately of 50%) and freeze plasma from 49 Spanish pregnant women. Filter papers were stored avoiding humidity at −20° C. in Barcelona.
(§3) Presence or absence of antibodies was defined by finite mixture models (FMM) for pregnancy-specific antigens (VAR2CSA peptides and recombinant domains) and by the mean plus 3 standard deviation (SD) of IgG response from pregnant women from Barcelona for general malaria antigens (AMA1, MSP119, and pCSP).
(§4) Data was fitted to a normal distribution by logarithmic transformation of nMFIs. Participant's baseline characteristics and parasitological outcomes were compared between study times and areas by univariate analysis (Fisher's tests for binary outcomes or t-Student test for continuous outcomes). Responses were considered not restricted to malaria when seroprevalences were 5% or high among Spanish pregnant women.
Linear regression models were used to compare antibody levels from Mozambican and Spanish pregnant women. The capacity of antibody levels to mimic malaria trends in Mozambique was analyzed by linear regression models (2010 was compared with 2003-2005 corresponding to a trend of malaria decrease and 2011-2012 with 2010 to a trend of increase) adjusted by treatment, parity, age and HIV.
The impact of P. falciparum infection during pregnancy on antibodies at delivery was assessed in linear regression models adjusted by age, parity, HIV and treatment. Changes in antibody levels due to parasite density (below or above 200) were assessed by linear regression models adjusted by age, parity, HIV and treatment. […]

IgG [2] = test: Multiplex bead-based immunoassay: seroprevalence (finite mixture models or negative control cutoff); type: binding, pregnant women; conditions: for Seroprevalence MQ (%): IPTp with mefloquine; for Seroprevalence Non-A (%): non anemia
Text: as §1, §2, §3, §4
Seroprevalences between countries (Benin, Gabon and Mozambique for HIV-uninfected and Kenya and Mozambique for HIV-infected), between IPTp intervention group (MQ vs SP for HIV-uninfected and MQ vs Placebo for HIV infected) and anemia status were compared by logistic regression models adjusted by parity, age and treatment.
The modification of the associations by HIV infection or parity was assessed by including interaction terms into the regression models.

IgG [3] = test: Antibody dynamics during pregnancy (time to double, half-life, sero-reversion) from bead-based immunoassay; type: binding, pregnant Mozambican women
Text: as §1
The adjusted effect of infection on antibody levels was analyzed using log-linear mixed-effects regression models incorporating Gaussian random intercepts. […] Time to double the antibody levels (T2x) and half-lives were calculated in weeks from the estimated rates and the boundaries at 95% confidence interval obtained from mixed-effects models for subjects suffering a P. falciparum infection at follow-up independent of antibody status at recruitment (Ab[−or+]/Pf+) and subjects seropositive at recruitment and no infection detected on follow-up (Ab+/Pf−), respectively. In situations that the increase rate is a negative value (rate below 1) or the decay rate is a positive value (rate above 1), the calculated T2x or half-life was reported as infinity. Similarly, the time to sero-reversion was calculated for these subjects using the ratio of the seropositivity cutoff by the average antibody titers at recruitment as decay, i.e. how many times the average titers need to be reduced to be equal the cutoff.

[4] = HIV uninfected, qPCR in peripheral and placental blood at delivery

OC(c1cc(C(F)(F)F)nc2c(C(F)(F)F)cccc12)C1CCCCN1 (stereo not drawn) [MQ, mefloquine]
PCR MQ (OR) (P. falciparum; HIV infected, MQ with Placebo as reference): 0.24 (0.10; 0.59) | PCR prevalence of infection (%) (P. falciparum; HIV infected, qPCR at delivery): 2% | PCR prevalence of infection (%) (P. falciparum; [4]): 18%

sulfadoxine-pyrimethamine [SP]
PCR SP (OR) (P. falciparum; HIV uninfected, SP with MQ as reference): 1.93 (1.28; 2.91) | PCR prevalence of infection (%) (P. falciparum; [4]): 27%

B1: AMA1: recombinant apical membrane antigen 1, from 3D7 strain (protein)
chain: QNYWEHPYQNSDVYRPINEHREHPKEYEYPLHQEHTYQQEDSGEDENTLQHAYPIDHEGAEPAPQEQNLFSSIEIVERSNYMGNPWTEYMAKYDIEEVHGSGIRVDLGEDAEVAGTQYRLPSGKCPVFGKGIIIENSNTTFLTPVATGNQYLKDGGFAFPPTEPLMSPMTLDEMRHFYKDNKYVKNLDELTLCSRHAGNMIPDNDKNSNYKYPAVYDDKDKKCHILYIAAQENNGPRYCNKDESKRNSMFCFRPAKDISFQNYTYLSKNVVDNWEKVCPRKNLQNAKFGLWVDGNCEDIPHVNEFPAIDLFECNKLVFELSASDQPKQYEQHLTDYEKIKEGFKNKNASMIKSAFLPTGAFKADRYKSHGKGYNWGNYNTETQKCEIFNVKPTCLINNSSYIATTALSHPIEVENNFPCSLYKDEIMKEIERESKRIKLNDNDDEGNKKIIAPRIFISDDKDSLKCPCDPEMVSNSTCRFFVCKCVERRAEVTSNNEVVVKEEYKDEYADIPEHKPTYDKMK
Immunoreactivity: recognition by IgGs at levels above BSA recognition (IgG [1]; 641 pregnant Mozambican women 2003-2012, mean nMFI above mean BSA nMFI plus 3 SD): above BSA recognition | Infection during pregnacy Infection vs no-infection ratio (95% CI) (IgG [1]; nMFI at delivery, Mozambican women followed 2011-2012, adjusted): 1.8 (1.30; 2.50) | Parity MG vs PG ratio (95% CI) (IgG [1]; nMFI at delivery, multigravid vs primigravid Mozambican women, adjusted): 1.2 (0.76; 1.9) | Exposure dependence Increase 2011-2012 vs 2010 Ratio (95% CI) (IgG [1]; nMFI ratio at delivery, Mozambique, adjusted by parity, age, treatment and HIV): 0.88 (0.73; 1.07) | PW Mz vs PW Bcn Ratio (95% CI) (IgG [1]; nMFI ratio, pregnant Mozambican women vs pregnant Spanish women (N=49)): 24.51 (18.53; 32.43) | Parasite density Low vs High ratio (95% CI) (IgG [1]; nMFI ratio, below or above 200 genomes per microliter, adjusted): 1.18 (0.96; 1.46) | SeroPrev Delivery % (IgG [2]; 239 pregnant Mozambican women followed 2011-2012): 89% | Seroprevalence MQ (%) (IgG [2]; HIV infected): 92% | Seroprevalence K (%) (IgG [2]; HIV infected, Kenya, at delivery): 95% | MQ (OR) (IgG [2]; HIV infected, MQ, Placebo as reference): 0.6 (0.32; 1.12) | M (OR) (IgG [2]; HIV infected, Mozambique, Kenya as reference): 0.76 (0.40; 1.45) | Seroprevalence M (%) (IgG [2]; HIV infected, Mozambique, at delivery): 93% | Seroprevalence PL (%) (IgG [2]; HIV infected, Placebo group): 95% | Seroprevalence A (%) (IgG [2]; HIV infected, anemia): 92% | A (OR) (IgG [2]; HIV infected, anemia, Non-A as reference): 0.79 (0.41; 1.51) | Seroprevalence Non-A (%) (IgG [2]; HIV infected): 94% | Seroprevalence B (%) (IgG [2]; HIV uninfected, Benin, at delivery): 100% | Seroprevalence G (%) (IgG [2]; HIV uninfected, Gabon, at delivery): 82% | Seroprevalence MQ (%) (IgG [2]; HIV uninfected): 96% | Seroprevalence SP (%) (IgG [2]; HIV uninfected, IPTp with sulfadoxine-pyrimethamine): 96% | Seroprevalence M (%) (IgG [2]; HIV uninfected, Mozambique, at delivery): 93% | Seroprevalence A (%) (IgG [2]; HIV uninfected, anemia): 96% | Seroprevalence Non-A (%) (IgG [2]; HIV uninfected): 96% | Seroprevalence in Tanzania (IgG [2]; HIV-uninfected women, area of Tanzania where no malaria infection was observed): 42% | Seroprevalence 2003/4 (%) (IgG [2]; Mozambican pregnant women at delivery, 2003/4): 99% | Seroprevalence 2005 (%) (IgG [2]; Mozambican pregnant women at delivery, 2005): 98% | Seroprevalence 2010 (%) (IgG [2]; Mozambican pregnant women at delivery, 2010): 93% | Seroprevalence 2011 (%) (IgG [2]; Mozambican pregnant women at delivery, 2011): 89% | Seroprevalence 2012 (%) (IgG [2]; Mozambican pregnant women at delivery, 2012): 92% | SeroPrev PW Bcn (%) (IgG [2]; seroprevalence among pregnant Spanish women never exposed to malaria): 2% | Decrease (OR) (IgG [2]; seroprevalence odds ratio 2010 vs 2003/5, Mozambique, adjusted): 0.24 (0.06; 0.93) | Increase (OR) (IgG [2]; seroprevalence odds ratio 2011/12 vs 2010, Mozambique, adjusted): 0.58 (0.29; 1.16) | Antibody dynamics Sero-revertion weeks (95% CI) (IgG [3]; time to sero-negativisation, seropositive at recruitment, no infection on follow-up): 544.49 (242.56; ∞) weeks | Antibody dynamics Time to double weeks (95% CI) (IgG [3]; women with P. falciparum infection on follow-up, log-linear mixed-effects model): 91.65 (39.61; ∞) weeks
